Source: US20200407445A1 (ITEOS THERAPEUTICS, published 2020)

Experiments:
[1] = biological target: T1, mouse TIGIT expressed on cells (mouse, UniProt P86176 29-249); assay: flow cytometry, 100 nM Ab, Jurkat-mTIGIT vs untransfected
T1 construct: whole, on cells; on Jurkat cells engineered to express mouse TIGIT; also called mTIGIT; Jurkat-mTIGIT
T1 sequence (looked up): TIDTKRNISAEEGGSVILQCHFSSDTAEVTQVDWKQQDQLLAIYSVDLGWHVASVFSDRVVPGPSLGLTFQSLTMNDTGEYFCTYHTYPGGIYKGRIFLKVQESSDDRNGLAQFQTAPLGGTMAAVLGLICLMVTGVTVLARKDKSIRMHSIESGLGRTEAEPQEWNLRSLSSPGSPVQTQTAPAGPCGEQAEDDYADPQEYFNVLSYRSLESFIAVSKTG
Procedure: (§1) Antibodies were incubated with the cells for 20 min at 4° C. in FACS buffer. […] Geometric mean fluorecence intensity was analysed using LSR BD Fortessa. Cell binding was recorded as the median florescence intensity of PE on the transfected line compared to the un-transfected line for each antibody (Table 3).

[2] = biological target: T2, human TIGIT expressed on cells (human, UniProt Q495A1 22-244); assay: flow cytometry, 100 nM Ab, Jurkat-hTIGIT vs untransfected
T2 construct: whole, on cells; on Jurkat E6.1 cells transduced with human TIGIT, on Promega TIGIT Effector cells or on human primary T cells; the assay field says which; also called hTIGIT; Jurkat-hTIGIT
T2 sequence (looked up): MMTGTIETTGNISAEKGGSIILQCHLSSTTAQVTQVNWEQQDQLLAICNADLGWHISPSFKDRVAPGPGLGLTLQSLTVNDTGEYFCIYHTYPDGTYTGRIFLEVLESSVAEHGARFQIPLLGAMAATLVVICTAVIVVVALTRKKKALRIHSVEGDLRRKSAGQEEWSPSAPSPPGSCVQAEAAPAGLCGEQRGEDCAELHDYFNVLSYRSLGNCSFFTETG
Procedure: as §1

[3] = biological target: T1, mouse TIGIT expressed on cells; assay: flow cytometry, competition with mouse CD155-His-Fc (4 ug/ml) on Jurkat-mTIGIT, FIG. 15A
Procedure: Cells were washed once, and stained with PE-anti-His antibody (Biolegend, 362603) during 30 min at 4° C.

Human TIGIT-Fc = biological target: T3, Human TIGIT-Fc (human, UniProt Q495A1 22-141); assay: ForteBio BLI, IgG KD, avid
T3 construct: bought (Creative Biomart); also called TIGIT-Fc antigen; TIGIT-Fc fusion antigen; not shown: Fc part
T3 sequence (looked up): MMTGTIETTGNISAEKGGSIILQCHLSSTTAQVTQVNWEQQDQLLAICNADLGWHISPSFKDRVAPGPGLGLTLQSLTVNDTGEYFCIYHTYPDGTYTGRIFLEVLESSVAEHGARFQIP
Procedure: Briefly, ForteBio affinity measurements were performed by loading IgGs on-line onto AHQ sensors. Sensors were equilibrated off-line in assay buffer for 30 min and then monitored on-line for 60 seconds for baseline establishment. Sensors with loaded IgGs were exposed to 100 nM antigen (human TIGIT-Fc, human TIGIT-His or cyno TIGIT-Fc) for 5 minutes, afterwards they were transferred to assay buffer for 5 min for off-rate measurement. Kinetics were analyzed using the 1:1 binding model.

[4] = biological target: T2, human TIGIT expressed on cells; assay: cell-based or functional assay
[5] = biological target: T1, mouse TIGIT expressed on cells; assay: cell-based or functional assay
[6] = biological target: T2, human TIGIT expressed on cells; assay: cell-based or functional assay; remark: listed apart in the source
[7] = biological target: T2, human TIGIT expressed on cells; assay: flow cytometry on Jurkat-hTIGIT
Procedure: (§2) Antibodies were incubated with the cells for 20 min at 4° C. in FACS buffer. […] Fluorescence intensity was analysed using LSR BD Fortessa and cell binding was recorded as the median fluorescence intensity of PE in cells expressing TIGIT at their surface.
(§3) The half-maximal concentration of binding (EC50) to Jurkat-hTIGIT was calculated using a four-variable curve-fit equation in Prism.

[8] = biological target: T2, human TIGIT expressed on cells; assay: flow cytometry, primary CD8+ T cells of cancer patients' PBMC, MFI
Procedure: Cells were distributed at 1×10^5 cells per well. […] Then, cells were washed and incubated with the following antibodies and life viability dye (LVD) mix: anti-CD4-PercP-Cy5.5 (clone A161A1, BioLegend 357414); anti-CD8-BV510 (clone SK1, BD Bioscience 563919) and LVD efluor 520 (eBioscience 65-0867-14). Cells were washed and fixed and surface staining was quantified using BD LSR Fortessa. Flow cytometry data was analysed using FlowJo V10.1. TIGIT MFI on gated LVD-TIGIT+CD8+ cells was used to calculate EC50 values.

[9] = biological target: T2, human TIGIT expressed on cells; assay: flow cytometry, primary CD8+ T cells of healthy human PBMC, MFI
Procedure: Isolated human PBMCs from healthy volunteers were analysed for binding by antagonist anti-TIGIT antibodies. Cells were distributed at 1×10⁵ cells per well. Cells were incubated with anti-CD16 (Clone 3G8, BioLegend 302002), CD32 (Clone FLI8.26, BD Bioscience 557333) and CD64 (BD Bioscience 555525) at room temperature for 10 min, and the indicated anti-human TIGIT antibody clones were directly added at a final concentration of 8; 4; 2; 1; 0.5; 0.25; 0.125; 0.062; 0.031; 0.016; 8×10⁻³ and 4×10⁻³ nM in FACS buffer and incubated for 20 min at 4° C. […] Then, cells were washed and incubated with the following antibodies and LVD mix: anti-CD4-PercP-Cy5.5 (clone A161A1, BioLegend 357414); anti-CD8-BV510 (clone SK1, BD Bioscience 563919) and LVD efluor 660 (eBioscience 65-0864-18).
The EC50 values for binding to CD8+ human primary T cells were calculated using the MFI signal on living TIGIT+CD8+ T cells.

[10] = biological target: T2, human TIGIT expressed on cells; assay: cell-based or functional assay; remark: listed apart in the source
[11] = biological target: T4, recombinant human TIGIT protein (construct not stated) (human, UniProt Q495A1 22-141, limits assumed); assay: Biacore T200, IgG captured by anti-human Fc, antigen in solution, 1:1 kinetic model
T4 construct: also called hTIGIT (Creative Biomart); recombinant TIGIT protein
T4 sequence (looked up): T3 sequence (looked up)
Procedure: (§4) Biosensor analysis was conducted at 25° C. in a HBS-EP buffer system (10 mM HEPES pH 7.3, 150 mM NaCl, 3 mM EDTA, 0.05% Tween20) using Biacore T200 technology, CMS sensor chip (run at Novalix, France). The sample hotel was maintained at 8° C. Goat anti-human IgG capture antibody (Fcγ fragment specific, Jackson ImmunoResearch Laboratories) was immobilized (10000 RU) to both flow cells of the sensor chip using standard amine coupling chemistry. This surface type provided a format for reproducibly capturing fresh analysis antibody after each regeneration step. Flow cell 2 was used to analyse captured antibody while flow cell 1 was used as a reference flow cell. […] Two blank (buffer) injections also were run and used to assess and subtract system artefacts. The association (300 s) and dissociation (600 s) phases for all antigen concentrations were performed at a flow rate of 30 uL/min. The surface was regenerated with three sequential injections (15 s, 15 s and 60 s) of 10 mM glycine-HCl, pH 1.5. The obtained sensorgrams were fitted globally to a 1:1 model (assuming the same kinetic values for all applied concentrations).

[12] = biological target: T2, human TIGIT expressed on cells; assay: flow cytometry on Jurkat-hTIGIT; remark: listed apart in the source
Procedure: as §2, §3

[13] = biological target: T2, human TIGIT expressed on cells; assay: flow cytometry, competition with CD155-His (15 ug/ml) on Jurkat-hTIGIT
[14] = biological target: T4, recombinant human TIGIT protein …; assay: Biacore T200, IgG captured by anti-human Fc, antigen in solution, steady state model
Procedure: as §4, with “The obtained sensorgrams were fitted globally to a 1:1 model (assuming the same kinetic values for all applied concentrations).” left out

[15] = biological target: T2, human TIGIT expressed on cells; assay: flow cytometry, AF647-32959 on Jurkat-hTIGIT; competitor 31282 at 0.8 nM
Procedure: (§5) Geometric mean fluorescence intensity was analysed using LSR BD Fortessa. Cell binding was recorded as the median florescence intensity of AF647.

[16] = biological target: T2, human TIGIT expressed on cells; assay: flow cytometry, AF647-32959 on Jurkat-hTIGIT; competitor 31282 at 0 nM
Procedure: as §5

[17] = biological target: T2, human TIGIT expressed on cells; assay: flow cytometry, AF647-32959 on Jurkat-hTIGIT; competitor 31282 at 0.08 nM
Procedure: as §5

[18] = biological target: T2, human TIGIT expressed on cells; assay: flow cytometry, cell binding Jurkat human TIGIT
[19] = biological target: T2, human TIGIT expressed on cells; assay: flow cytometry, AF647-32959 on Jurkat-hTIGIT; competitor 31282 at 8 nM
Procedure: as §5

[20] = biological target: T2, human TIGIT expressed on cells; assay: flow cytometry, AF647-32959 on Jurkat-hTIGIT; competitor 31282 at 0.16 nM
Procedure: as §5

B1: anti-TIGIT antibody clone 26493 (IgG) (antibody, V domains shown)
VH: EVQLVESGGGLVQPGRSLRLSCAASGFTFGDYAMHWVRQAPGKGLEWVSGITWNSGSIGYADSVKGRFTISRDNAKNSLYLQMNSLRAEDTALYYCAKPVPKSRGLDVWGQGTMVTVSS
VL: DIQLTQSPSSVSASVGDRVTITCRASQGISSWLAWYQQKPGKAPKLLIYGASSLQSGVPSRFSGSGSGTDFTLTISSLQPEDFATYYCQQAFYLPWTFGGGTKVEIK
notes: parent clone; also called surrogate anti-TIGIT antagonistic antibody
B1 was tested, and the “FON (Fold Over Negative)” value [1] was 463 fold, the “FON (Fold Over Negative)” value [2] was 80 fold and the IC50 [3] was 2.3 nM. The Kd (Human TIGIT-Fc) was 1.49 nM, the “Induction over Isotype control (fold change), luciferase, Jurkat-hTIGIT + CHO-TCR-CD155, 133 nM” value [4] was 0.96 fold and the “IFNg production by mouse OT-I CD8+ T cells co-cultured with OVA-pulsed PanO2 cells (express CD155), 133 nM” value [5] was ~2 fold.

B2: 4.1D3.Q1E (comparative anti-TIGIT antibody, human IgG1) (antibody, V domains shown)
VH: EVQLQQSGPGLVKPSQTLSLTCAISGDSVSSNSAAWNWIRQSPSRGLEWLGKTYYRFKWYSDYAVSVKGRITINPDTSKNQFSLQLNSVTPEDTAVFYCTRESTTYDLLAGPFDYWGQGTLVTVSS
VL: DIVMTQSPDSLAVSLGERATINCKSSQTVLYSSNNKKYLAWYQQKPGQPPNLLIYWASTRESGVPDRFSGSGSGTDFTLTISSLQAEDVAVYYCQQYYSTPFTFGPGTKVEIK
notes: from WO2017/053748; made in HEK cells as human IgG1
For B2, the “EC50 (nM), luciferase, Jurkat-hTIGIT” value [6] was 10.3 nM, the “Fold change of EC50 over EC50 of best clone (31282_up)” value [6] was 3.1 fold and the “Induction over Isotype control (fold change), luciferase, Jurkat-hTIGIT + CD155 aAPC/CHO-K1” value [6] was 5.8 fold. For the same binder, the EC50 [7] was 0.27 nM, the “Fold change of EC50 over EC50 of best clone (31282_wu)” value (from here on “Fold change of EC50 … (31282_wu)”) [7] was 2.5 fold and the EC50 [8] was 1.15 nM. For the same binder, the “Fold change of EC50 over EC50 of best clone (31282)” value [8] was 9.5 fold, the EC50 [9] was 1.88 nM and the “Fold change of EC50 … (31282_wu)” value [9] was 9.7 fold. For the same binder, the “EC50 (nM), IFNg, human primary CD8+ T cells” value [10] was 1.43 nM, the “Fold change of EC50 … (31282_wu)” value [10] was 10.8 fold and the “Induction over isotype control (fold change), IFNg, human primary CD8+ T cells + CD155 aAPC/CHO-K1” value [10] was 2.9 fold. For the same binder, the Kd [11] was 0.044 nM, the koff [11] was 4.72e-05 s⁻¹ and the EC50 [12] was 0.267 nM. For the same binder, the “Fold change of IC50 over IC50 of best clone (31282_up)” value [13] was 1.9 fold and the IC50 [13] was 0.07 nM.

B3: 313M32 (comparative anti-TIGIT antibody, human IgG1) (antibody, V domains shown)
VH: QVQLQESGPGLVKPSETLSLTCAVSGYSITSDYAWNWIRQPPGKGLEWIGYISYSGSTSYNPSLRSRVTISRDTSKNQFFLKLSSVTAADTAVYYCARRQVGLGFAYWGQGTLVTVSS
VL: DIQMTQSPSSLSASVGDRVTITCKASQDVSTAVAWYQQKPGKAPKLLIYSASYRYTGVPSRFSGSGSGTDFTFTISSLQPEDIATYYCQQHYSTPWTFG
notes: from WO2016/191643; made in HEK cells as human IgG1; the VL as printed ends at ...TFG (FR4 not complete); also called 313M2
In the case of B3, the EC50 [7] is reported as 0.44 nM, the “Fold change of EC50 … (31282_wu)” value [7] is reported as 4.2 fold and the EC50 [8] is reported as 1 nM. For the same binder, the “Fold change of EC50 over EC50 of best clone (31282)” value [8] was 8.3 fold, the EC50 [9] was 1.45 nM and the “Fold change of EC50 … (31282_wu)” value [9] was 7.5 fold. For the same binder, the Kd [14] was 10.1 nM, the EC50 [12] was 0.445 nM and the “Fold change of IC50 over IC50 of best clone (31282_up)” value [13] was 16.7 fold. For the same binder, the IC50 [13] was 0.65 nM.

B4: anti-TIGIT antibody clone 32959 (human IgG1) (antibody, V domains shown)
VH: QVQLVQSGAEVKKPGSSVKVSCKASGGTFSSYLISWVRQAPGQGLEWMGGIYPIFATANYAQKFQGRVTITADESTSTAYMELSSLRSEDTAVYYCAREAQSYRVPFDIWGQGTMVTVSS
VL: EIVMTQSPATLSVSPGERATLSCRASQSVSSNLAWYQQKPGQAPRLLIYGASTRATGIPARFSGSGSGTEFTLTISSLQSEDFAVYYCQQYAIWPPFTFGGGTKVEIK
modifications: The antibody was directly coupled to the dye AF647 in Example 24; the attachment sites are not stated.
notes: human IgG1 made in HEK cells
In the case of B4, the EC50 [15] is reported as 0.49 nM, the EC50 [16] is reported as 0.22 nM and the EC50 [17] is reported as 0.33 nM. For the same binder, the “FON (Fold Over Negative)” value [18] was 588 fold, the EC50 [19] was 0.39 nM and the EC50 [20] was 0.37 nM.
